Assay results taken from article PMC5529482, “Novel strategies to mimic transmembrane tumor necrosis factor-dependent activation of tumor necrosis factor receptor 2” (Scientific Reports, 2017).

Molecular target: T1, mouse TNFR2-Fc fusion protein (mouse, UniProt P25119 23-258)
T1 construct: mouse TNF receptor 2 (TNFR2)
T1 sequence (looked up): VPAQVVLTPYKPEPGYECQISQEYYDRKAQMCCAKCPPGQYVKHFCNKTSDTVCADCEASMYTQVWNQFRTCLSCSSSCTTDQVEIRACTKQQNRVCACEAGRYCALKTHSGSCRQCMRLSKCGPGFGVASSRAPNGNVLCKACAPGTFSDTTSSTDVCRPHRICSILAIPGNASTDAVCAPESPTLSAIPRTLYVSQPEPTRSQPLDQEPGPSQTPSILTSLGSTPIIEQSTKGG
Assay: ELISA; TNFR1-Fc or TNFR2-Fc coated at 1 µg/ml in PBS, 4 °C overnight; TNF muteins in 2% skim milk powder in PBS, 1 h RT; detected with anti-TNF clone F6C5 and HRP anti-mouse IgG
Conditions: both partners purified

- EC50: 0.045 nM
B1: GCN4-sc-mTNFR2 (ligand)
chain: not shown
